# Source: publication PMC4389316, “C-terminal residues of skeletal muscle calsequestrin are essential for calcium binding and for skeletal ryanodine receptor inhibition” (Skeletal Muscle, 2015)
# B1: wild-type (WT) calsequestrin type 1 (CSQ1), rabbit [rabbit] / skeletal triadin 95 kDa (trisk95) [rabbit (endogenous in skeletal muscle SR vesicles)] (parent)
# chain 1: EEGLDFPEYDGVDRVINVNAKNYKNVFKKYEVLALLYHEPPEDDKASQRQFEMEELILELAAQVLEDKGVGFGLVDSEKDAAVAKKLGLTEEDSIYVFKEDEVIEYDGEFSADTLVEFLLDVLEDPVELIEGERELQAFENIEDEIKLIGYFKNKDSEHYKAFKEAAEEFHPYIPFFATFDSKVAKKLTLKLNEIDFYEAFMEEPVTIPDKPNSEEEIVNFVEEHRRSTLRKLKPESMYETWEDDMDGIHIVAFAEEADPDGYEFLEILKSVAQDNTDNPDLSIIWIDPDDFPLLVPYWEKTFDIDLSAPQIGVVNVTDADSVWMEMDDEEDLPSAEELEDWLEDVLEGEINTEDDDDEDDDDDDDD
# chain 2: MTEITAEGNASTTTTVIDSKNGSVPKSPGKVLKRTVTEDLVTTFSSPAAWLLVIALIITWSAVAVVMFDLVDYKNFSASSIAKMGSDPLKLVHDAVEETTDWIYGFFSLLSDIISSDGDEEDDEGDEDTAKGEIEEPPLKRKDIHKEKIEKQEKPERKIPTKVVHKEKEKEKEKVKEKEKPEKKATHKEKLEKKEKPETKTVTKEEKKARTKEKIEEKTKKEVKGVKQEKVKQTVAKAKEVQKTPKPKEKESKETAAVSKQEQKDQYAFCRYMIDIFVHGDLKPGQSPAIPPPSPTEQASRPTPALPTPEEKEGEKKKAEKKVTTETKKKAEKEDAKKKSEKETDIDMKKKEPGKSPDTKPGTVKVTTQAATKKDEKKEDSKKAKKPAEEQPKGKKQEKKEKHEEPAKSTKKEHAAPSEKQAKAKIERKEEVSAASTKKAVPAKKEEKTTKTVEQETRKEKPGKISSVLKDKELTKEKEVKVPASLKEKGSETKKDEKTSKPEPQIKKEEKPGKEVKPKPPQPQIKKEEKPEQDIMKPEKTALHGKPEEKVLKQVKAVTTEKHVKPKPAKKAEHQEKEPPSIKTDKPKSTSKGMPEVTESGKKKIEKSEKEIKVPARRESHQLQNVTKAEKPARGSKEGFEDVPASKKAKEEAEEVSSTKKQKSPISFFQCVYLDGYNGYGFQFPVTPAQYPGESSGKPNSPGPKQ
# Variants of: B1
# Assay: co-immunoprecipitation (CSQ1 IP, Western blot densitometry)
# Settings: with skeletal triadin 95 kDa (trisk95) [rabbit (endogenous in skeletal muscle SR vesicles)]; 1 mM Ca2+; parent: 100; read off a plot
row,percent of parent (% relative binding),Variant
1,84,chain 1 D363A D365A D367A
2,110,chain 1 D365A D367A
3,86,chain 1 D367A
